Test results: the nanobody polyreactivity screen of Harvey et al. (2022)

Assay: yeast display, Sf9 membrane polyspecificity reagent, FACS + sequencing; frameworks hold sequencing errors
Outline: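 Galactose-induced (36–48 hours) yeast carrying a synthetic nanobody display library were exposed to 10% biotinylated, detergent-solubilized Sf9 membrane reagent at 4 °C for 1 hour. FACS followed streptavidin microbead enrichment, using low and high (top ~1%) gates for expression (anti-HA) and reagent binding (streptavidin). Colony PCR, MiSeq 2 × 250 sequencing and CDR-length filtering followed. Labels for polyreactivity reflect the gate of origin.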

| Sequence | polyreactivity (PSR sort gate) |
| --- | --- |
| QVQLVESGGGLVQAGGSLRLSCAASGNIFDRYVMGWYRQAPGKERELVAAISVSGGSTYYADSVKGRFTISRDNAKNTVFLQMNSLKPEDTAVYYCAAHSRLINWYDYWGQGTQVTVSS | high polyreactivity |
| QVQLVESGGGLVQAGGSLRLSCAASGNIFESYGMGWYRQAPGKERELVATINTSSGSTYYADSVKGRFTISRDNAKNTVYLQMNSLKPEDTAVSSCAGEWYPYAWGYGYWGQGTQVTVSS | low polyreactivity |
| QVQLVESGGGLVQAGGSLRLSCAASGNIFFRNAMGWYRQAPGKERELVAAISWRGTSTYYADSVKGRFTISRDNAKNTVYLQMNSLKPEDTAVYYCAARGLWPYDYWGQGTQVTVSS | low polyreactivity |
| QVQLVESGGGLVQAGGSLRLSCAASGNIFGFYTMGWYRQAPGKERELVAAIRSRGGSTNYADSVKGRFTISRDNAKNTVYLQMNSLKPEDTAVDYCAADPRYISYDYWGQGTQVTVSS | low polyreactivity |
| QVQLVESGGGLVQAGGSLRLSCAASGNIFGVYTMGWYRQAPGKERELVAVITSGGRTYYADSVKGRFTISRDNAKNTVYLQMNSLKPADTAVYYCAADIRYTREEYWGQGPQVTVSS | high polyreactivity |
| QVQLVESGGGLVQAGGSLRLSCAASGNIFGWYAMGWYRKAPGKERELVAAISSGGRTNYADSVKGRFTISRDYAKNTVYLQMNSLKPEDTAVYYCNKVAGVTGRYYYWGQGTQVTVSS | low polyreactivity |
| QVQLVESGGGLVQAGGSLRLSCAASGNIFGYYAMGWYRQAPGKERELVAAIRTRGGRTYYADSVKGRFTISRDNAKNTVYLQMNSLKPEDTAVYYCAARSIAGFWRYDYWGQGTQVTVSS | high polyreactivity |
| QVQLVESGGGLVQAGGSLRLSCAASGNIFGYYAMGWYRQAPGKERELVAAITTTGGSTYYADSVKGRFTISRDNAKNTVYLQMNSLKPEDTAVYYCAAETGYWYYYWGQGTLVTVSS | high polyreactivity |
| QVQLVESGGGLVQAGGSLRLSCAASGNIFHFYAMGWYRQAPGKERELVATISWRGDGTYYADSVKGRFTISRDNAKYTVYLQMNSLKPEDTAVYYCAARGVWPEYDYWGQGTQVTVSS | low polyreactivity |
| QVQLVESGGGLVQAGGSLRLSCAASGNIFIYNAMGWYRQAPGKERELVAAISVSGGDTYYADSVKGRFTISRDNAKNTVYLQMNSLKPEDTAVYYCAAEAEYIELDYWGQGTQVTVSS | low polyreactivity |
| QVQLVESGGGLVQAGGSLRLSCAASGNIFLRYAMGWYRQAPGKERELVAAISYSGGGSTYYADSVKGRFTISRDNAKNTVYLQMNSLKPEDTAVYYCAKVLTSRTQFFDYDYWGQGTQVSVSS | low polyreactivity |
| QVQLVESGGGLVQAGGSLRLSCAASGNIFLYYAMGWYRQAPGKERELVADIDSSGASTYYADSVKGRFTISRDNAKNTVYLQMNSLKPEDTAVYYCATEDFRTDTGMYYWGQGTQVTVSS | low polyreactivity |
| QVQLVESGGGLVQAGGSLRLSCAASGNIFLYYAMGWYRQAPGKERELVADIDSSGASTYYADSVKGRFTISRDNAKNTVYLQMNSLKPEDTAVYYGAKDSNRYSYYSPYDSWGQGTQVTVSS | low polyreactivity |
| QVQLVESGGGLVQAGGSLRLSCAASGNIFPAYVMGGYRQAPGKDRELVAAITDSDGSTFYADSVKGRFTISRDNAKNTVYLQMNSLKAEDTAVYYCAAYSYRQGWGFGYWGQGTQVTVSS | low polyreactivity |
| QVQLVESGGGLVQAGGSLRLSCAASGNIFPYYAMGWYRQAPGKERELVASITWSGGRTYYADSVKGRFTISRDNAKNTVYLQMNSLKPEDTAVYYCARRRVYRWYTGDYWGQGTQVTVSS | low polyreactivity |
| QVQLVESGGGLVQAGGSLRLSCAASGNIFPYYAMGWYRQAPGKERELVAVISYGGGNTRYADSVKGRFTISRDNAKNTVYLQMNSLIPEDTAVYYCAARRWGAAPRPYEGYYWGQGSQVTVSS | low polyreactivity |

| Sequence | polyreactivity (PSR sort gate) |
| --- | --- |
| QVQLVESGGGLVQAGGSLRLSCAASGNIFQRYAMGWYRQAPGKERDLVAAISYSGARTYYADSVKGRFTISRDNAKNTDYLQMNSLKPEDTAVYYCATYGGLTKFRLAYDYWGQGTQVTVSS | high polyreactivity |
| QVQLVESGGGLVQAGGSLRLSCAASGNIFRAYAMGWYRQAPGKERELVARISASGGSTYYADSVKGRFTISRDNAKNTVYLQMNSLKPEDTAVYYCAARVRVRLGRNWSSYYYWGQGTQVTVSS | high polyreactivity |
| QVQLVESGGGLVQAGGSLRLSCAASGNIFRGYTMGWYRQAPGKERELVATITWNGVSTFYADSVKGRFTISRDNAKNTVYLEMNSLKPEDTAVYYCAAYYPSHDYSGFWSDTYEYWGQGTQVTVSS | low polyreactivity |
| QVQLVESGGGLVQAGGSLRLSCAASGNIFRGYTMGWYRQAPGKERELVATITWNGVSTFYADSVKGRFTISRDNAKNTVYLQMNSLIPEETAVYYCPAYYPSHDYSGVWSDTYEYWGQGTQVTVSS | low polyreactivity |
| QVQLVESGGGLVQAGGSLRLSCAASGNIFRINGMGWYRQAPGKERELVASITRSGSTYYADSVKGRFTISRDNANNTVYLKMNSLKPEDTAVYYCAADSRRYGVRFDYWGQGTQVTVSS | low polyreactivity |
| QVQLVESGGGLVQAGGSLRLSCAASGNIFRKNAMGWYRQAPGKERELVAAISRRGGNTYYADSVKGRFTISRDNAKNTVYLQMNSLKPEDTAVYYCAADWSPTAASDYWGQGTQVTVSS | high polyreactivity |
| QVQLVESGGGLVQAGGSLRLSCAASGNIFRPYTMGWYSQAPGKERQLVARISSGGSTNYADSVKGRFTISRDNAKNTVYLQMNSLKPEDTAVYYCAKRYGTVHSRYGYWGQGTQVTVSS | high polyreactivity |
| QVQLVESGGGLVQAGGSLRLSCAASGNIFRRYAMGWYRQAPGKERELVAAISRGGTRTYYADSVKGRFTISRDNAKNTVYLQMNSLKPEDTAVYYCNAEVKTNYRIADYDYWGQGTQVTVSS | high polyreactivity |
| QVQLVESGGGLVQAGGSLRLSCAASGNIFRYYVMGLYRQAAGKEREFVAAITSSGGSTYYADSVKGRFTISRDNAKKTVYLQMNSLKPEDTAVYYCAKDYWDPGWAEYDYWGQGTQVTVSS | low polyreactivity |
| QVQLVESGGGLVQAGGSLRLSCAASGNIFSTYAIGWTRQAPGKERELVASISENGGSTYYADSVKGRFTISRDNAKNTVYLQMNSLKPDDTAVYYCAKGQLYSLFFQHDAPYRYGYWGQGTQVTVSS | low polyreactivity |
| QVQLVESGGGLVQAGGSLRLSCAASGNIFSWYAKGWYRQAPGKERELVAAITSGGRTYYADSVKGRFTISRDNAKNTVYLQMNSLKPEDTAVYYCNAVSRLYNRRDYWVQGTQVTVSS | high polyreactivity |
| QVQLVESGGGLVQAGGSLRLSCAASGNIFTYNTMGWYRQAPRKERELVAAISSGGSTYYADSVKGRFTISRDNAKNTVYLQMNSLKPEDTAVYYCNRRRWLWQTARGDYWGQGTQVTVSS | high polyreactivity |
| QVQLVESGGGLVQAGGSLRLSCAASGNIFVRYAMGWYRQAPGKERELVAAISRGGRTNYADSVKGRFTISRDNAKNTVYLQMNSLKPEDTAVYYCAADVRYHFYYWGQGTQVTVSS | high polyreactivity |
| QVQLVESGGGLVQAGGSLRLSCAASGNIFVWYDMGWYREAPGKERELVATITSSGGSTYYADSVKGRFTISRDNAKNTVYLQMNSLKPEDTAVYYCNALPYYRDDYWGQGTQVTVSS | low polyreactivity |
| QVQLVESGGGLVQAGGSLRLSCAASGNIFWRYGMGWYRQAPGKERELVAAITSGGTGTYYADSVKGRFTISRDNAKNTVYLQMNSLKPEDTAVYYCAARRWTNHYFYGWFYYWGQGTQVTVSS | high polyreactivity |
| QVQLVESGGGLVQAGGSLRLSCAASGNIFWWNAMGWYRQAPGKERELVAAITSDSTTYYADSVKGRFTISRDNAKNTVYLQMNSLKPEDTAVYYCNTVAYLRRFDKWGMNYWGQGTQVTVSS | low polyreactivity |
